Test results from patent publication US20230227838A1, “ENHANCED CELL SURVIVAL AGAINST BIOTIC AND ABIOTIC STRESSES THROUGH SALICYLICK ACID-INDUCED NPR1 CONDENSATES” (priority 2020, published 2023).

biological target: sim3-GFP (Arabidopsis thaliana) (UniProt P93002); assay: sim3-GFP IP, LC-MS/MS
Sequence (P93002 other isoform, or with tags, fused parts or gaps): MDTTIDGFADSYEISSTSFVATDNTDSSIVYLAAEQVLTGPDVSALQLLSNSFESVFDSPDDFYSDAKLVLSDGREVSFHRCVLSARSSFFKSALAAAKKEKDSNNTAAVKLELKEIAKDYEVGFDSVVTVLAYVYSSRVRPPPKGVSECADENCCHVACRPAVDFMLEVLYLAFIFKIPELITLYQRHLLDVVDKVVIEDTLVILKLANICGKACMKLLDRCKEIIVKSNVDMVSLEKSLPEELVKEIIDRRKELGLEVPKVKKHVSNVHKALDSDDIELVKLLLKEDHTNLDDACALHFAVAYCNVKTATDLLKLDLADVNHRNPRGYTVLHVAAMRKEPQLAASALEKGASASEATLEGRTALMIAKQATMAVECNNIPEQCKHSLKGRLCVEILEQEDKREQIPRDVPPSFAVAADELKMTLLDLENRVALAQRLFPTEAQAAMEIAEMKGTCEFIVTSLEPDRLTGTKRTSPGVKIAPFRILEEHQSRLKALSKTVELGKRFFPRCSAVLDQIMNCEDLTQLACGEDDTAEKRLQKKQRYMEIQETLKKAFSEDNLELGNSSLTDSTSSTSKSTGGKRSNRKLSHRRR

| Binder | Normalized Fold Change: SA vs Mock [fold] |
| --- | --- |
| G6PD6, glucose-6-phosphate dehydrogenase 6 (protein, UniProt Q9FJI5 1-515, looked up) Glucose-6-phosphate 1-dehydrogenase 6, cytoplasmic: MGSGQWHVEKRSTFRNDSFVREYGIVPETGCLSIIVLGASGDLAKKKTFPALFNLYRQGFLNPDEVHIFGYARTKISDEELRDRIRGYLVDEKNAEQAEALSKFLQLIKYVSGPYDAEEGFQRLDKAISEHEISKNSTEGSSRRLFYLALPPSVYPSVCKMIKTCCMNKSDLGGWTRIVVEKPFGKDLESAEQLSSQIGELFDESQIYRIDHYLGKELVQNMLVLRFANRFFLPLWNRDNIENVQIVFREDFGTEGRGGYFDEYGIIRDIIQNHLLQVLCLVAMEKPISLKPEHIRDEKVKVLQSVVPISDDEVVLGQYEGYRDDDTVPNDSNTPTFATTILRIHNERWEGVPFILKAGKALNSRKAEIRIQFKDVPGDIFRCQKQGRNEFVIRLQPSEAMYMKLTVKQPGLDMNTVQSELDLSYGQRYQGVAIPEAYERLILDTIKGDQQHFVRRDELKVAWEIFTPLLHRIDKGEVKSIPYKPGSRGPKEADQLLEKAGYLQTHGYIWIPPTL | 4.1 |
| ARD3, acireductone dioxygenase 3 (protein, UniProt Q8W108 1-199, looked up) Acireductone dioxygenase 3: MGEVVKDGREEVIQAWYMDDSEEDQRLPHHKDPKEFLSLDKLAELGVLSWRLDADNYETDEDLKKIRESRGYSYMDFCEVCPEKLPNYEVKVKSFFEEHLHTDEEIRYCVAGSGYFDVRDRNEAWIRVWVKKGGMIVLPAGIYHRFTVDSDNYIKAMRLFVGEPVWTPYNRPHDHLPARKEYIDNFVKVNEGGVIDASA | 8.57 |
| LON2, lon protease 2 (protein, UniProt O64948 1-888, looked up) Lon protease homolog 2, peroxisomal: MAETVELPSRLAILPFRNKVLLPGAIIRIRCTSHSSVTLVEQELWQKEEKGLIGILPVRDDAEGSSIGTMINPGAGSDSGERSLKFLVGTTDAQKSDAKDQQDLQWHTRGVAARALHLSRGVEKPSGRVTYVVVLEGLSRFNVQELGKRGPYSVARITSLEMTKAELEQVKQDPDFVALSRQFKTTAMELVSVLEQKQKTGGRTKVLLETVPIHKLADIFVASFEMSFEEQLSMLDSVDLKVRLSKATELVDRHLQSIRVAEKITQKVEGQLSKSQKEYLLRQQMRAIKEELGDNDDDEDDVAALERKMQAAGMPSNIWKHAQRELRRLKKMQPQQPGYNSSRVYLELLADLPWDKASEEHELDLKAAKERLDSDHYGLAKVKQRIIEYLAVRKLKPDARGPVLCFVGPPGVGKTSLASSIAAALGRKFVRLSLGGVKDEADIRGHRRTYIGSMPGRLIDGLKRVGVCNPVMLLDEIDKTGSDVRGDPASALLEVLDPEQNKSFNDHYLNVPYDLSKVVFVATANRVQPIPPPLLDRMELIELPGYTQEEKLKIAMRHLIPRVLDQHGLSSEFLKIPEAMVKNIIQRYTREAGVRSLERNLAALARAAAVMVAEHEQSLPLSKDVQKLTSPLLNGRMAEGGEVEMEVIPMGVNDHEIGGTFQSPSALVVDETMLEKILGPPRFDDSEAADRVASAGVSVGLVWTTFGGEVQFVEATSMVGKGEMHLTGQLGDVIKESAQLALTWVRARASDFKLALAGDMNVLDGRDIHIHFPAGAVPKDGPSAGVTLVTALVSLFSQKRVRADTAMTGEMTLRGLVLPVGGIKDKILAAHRYGIKRVILPQRNSKDLVEVPAAVLSSLEVILAKRMEDVLENAFEGGCPWRNNYSKL | 2.47 |
| ISU1, SufE/NifU family protein (protein, UniProt O49627 51-167, looked up) Iron-sulfur cluster assembly protein 1: PNVGTGLVGAPACGDVMKLQIKVDEKTGQIVDARFKTFGCGSAIASSSVATEWVKGKAMEDVLTIKNTEIAKHLSLPPVKLHCSMLAEDAIKAAVKDYKEKRVKTNGAAAAGETTQA | 3.44 |

Continued, values first:

| Normalized Fold Change: SA vs Mock [fold] | Binder |
| --- | --- |
| 4.86 | UGT85A1, UDP-Glycosyltransferase superfamily protein (protein, UniProt Q9SK82 1-489, looked up) UDP-glycosyltransferase 85A1: MGSQIIHNSQKPHVVCVPYPAQGHINPMMRVAKLLHARGFYVTFVNTVYNHNRFLRSRGSNALDGLPSFRFESIADGLPETDMDATQDITALCESTMKNCLAPFRELLQRINAGDNVPPVSCIVSDGCMSFTLDVAEELGVPEVLFWTTSGCAFLAYLHFYLFIEKGLCPLKDESYLTKEYLEDTVIDFIPTMKNVKLKDIPSFIRTTNPDDVMISFALRETERAKRASAIILNTFDDLEHDVVHAMQSILPPVYSVGPLHLLANREIEEGSEIGMMSSNLWKEEMECLDWLDTKTQNSVIYINFGSITVLSVKQLVEFAWGLAGSGKEFLWVIRPDLVAGEEAMVPPDFLMETKDRSMLASWCPQEKVLSHPAIGGFLTHCGWNSILESLSCGVPMVCWPFFADQQMNCKFCCDEWDVGIEIGGDVKREEVEAVVRELMDGEKGKKMREKAVEWQRLAEKATEHKLGSSVMNFETVVSKFLLGQKSQD |
| 13.7 | RPP1, Disease resistance protein (TIR-NBS-LRR class) family (protein, UniProt F4J339 1-1194, looked up) Probable disease resistance protein RPP1: MGSVMSLGCSKRKATNQDVDSESRKRRKICSTNDAENCRFIQDESSWKHPWSLCANRVISVAAVALTNFRFQQDNQESNSSSLSLPSPATSVSRNWKHDVFPSFHGADVRRTFLSHIMESFRRKGIDTFIDNNIERSKSIGPELKEAIKGSKIAIVLLSRKYASSSWCLDELAEIMKCRQMVGQIVMTIFYEVDPTDIKKQTGEFGKAFTKTCRGKPKEQVERWRKALEDVATIAGYHSHSWRNEADMIEKISTDVSNMLNSFTPSRDFDGLVGMRAHMDMLEQLLRLDLDEVRMIGIWGPPGIGKTTIARFLFNQVSDRFQLSAIMVNIKGCYPRPCFDEYSAQLQLQNQMLSQMINHKDIMISHLGVAQERLRDKKVFLVLDEVDQLGQLDALAKETRWFGPGSRIIITTEDLGVLKAHGINHVYKVEYPSNDEAFQIFCMNAFGQKQPHEGFDEIAWEVTCLAGELPLGLKVLGSALRGKSKREWERTLPRLKTSLDGKIGSIIQFSYDVLCDEDKYLFLYIACLFNGESTTKVKELLGKFLDVKQGLHLLAQKSLISFDGERIHMHTLLEQFGRETSRKQFVHHGFTKRQLLVGARGICEVLDDDTTDSRRFIGIHLELSNTEEELNISEKVLERVHDFHFVRIDASFQPERLQLALQDLIYHSPKIRSLNWYGYESLCLPSTFNPEFLVELDMRSSNLRKLWEGTKQLRNLKWMDLSYSSYLKELPNLSTATNLEELKLRNCSSLVELPSSIEKLTSLQILDLENCSSLEKLPAIENATKLRELKLQNCSSLIELPLSIGTATNLKQLNISGCSSLVKLPSSIGDITDLEVFDLSNCSSLVTLPSSIGNLQNLCKLIMRGCSKLEALPININLKSLDTLNLTDCSQLKSFPEISTHISELRLKGTAIKEVPLSIMSWSPLADFQISYFESLMEFPHAFDIITKLHLSKDIQEVPPWVKRMSRLRDLSLNNCNNLVSLPQLSDSLDYIYADNCKSLERLDCCFNNPEIRLYFPKCFKLNQEARDLIMHTCIDAMFPGTQVPACFIHRATSGDSLKIKLKESPLPTTLRFKACIMLVKVNEELMSYDQTPMIVDIVIRDEHNDLKEKIYPSIYPSIYPLLTEHIYTFELDVEEVTSTELVFEFPQLNKRNWKIGECGILQRETRSLRRSSSPDLSPESSRVSSYDHCLRGD |
| 3.79 | RPP5, Disease resistance protein (TIR-NBS-LRR class) (protein, UniProt F4JNB7 1-1449, looked up) Disease resistance protein RPP5: MAASSSSGRRRYDVFPSFSGVDVRKTFLSHLIEALDGKSINTFIDHGIERSRTIAPELISAIREARISIVIFSKNYASSTWCLNELVEIHKCFNDLGQMVIPVFYDVDPSEVRKQTGEFGKVFEKTCEVSKDKQPGDQKQRWVQALTDIANIAGEDLLNGPNEAHMVEKISNDVSNKLITRSKCFDDFVGIEAHIEAIKSVLCLESKEARMVGIWGQSGIGKSTIGRALFSQLSIQFPLRAFLTYKSTSGSDVSGMKLSWEKELLSEILGQKDIKIEHFGVVEQRLKHKKVLILLDDVDNLEFLKTLVGKAEWFGSGSRIIVITQDRQFLKAHDIDLVYEVKLPSQGLALTMLCRSAFGKDSPPDDFKELAFEVAKLAGHLPLGLNVLGSSLRRRGKKEWMEMMPRLRNGLNGDIMKTLRVSYDRLHQKDQDMFLCIACLFNGFEVSYVKDLLEDNVGLTMLSEKSLIRITPDGHIEMHNLLEKLGREIDRAKSKGNPGKRQFLTNFEDIHEVVTEKTGTETLLGIRLPFEEYFSTRPLLIDKESFKGMRNLQYLKIGDWSDGGQPQSLVYLPLKLRLLDWDDCPLKSLPSTFKAEYLVNLIMKYSKLEKLWEGTLPLGSLKKMNLLCSKNLKEIPDLSNARNLEELDLEGCESLVTLPSSIQNAIKLRKLHCSGVILIDLKSLEGMCNLEYLSVDCSRVEGTQGIVYFPSKLRLLLWNNCPLKRLHSNFKVEYLVKLRMENSDLEKLWDGTQPLGRLKQMFLRGSKYLKEIPDLSLAINLEEVDICKCESLVTFPSSMQNAIKLIYLDISDCKKLESFPTDLNLESLEYLNLTGCPNLRNFPAIKMGCSDVDFPEGRNEIVVEDCFWNKNLPAGLDYLDCLMRCMPCEFRPEYLVFLNVRCYKHEKLWEGIQSLGSLEEMDLSESENLTEIPDLSKATNLKHLYLNNCKSLVTLPSTIGNLQKLVRLEMKECTGLEVLPTDVNLSSLETLDLSGCSSLRTFPLISKSIKWLYLENTAIEEILDLSKATKLESLILNNCKSLVTLPSTIGNLQNLRRLYMKRCTGLEVLPTDVNLSSLGILDLSGCSSLRTFPLISTNIVWLYLENTAIGEVPCCIEDFTRLRVLLMYCCQRLKNISPNIFRLRSLMFADFTDCRGVIKALSDATVVATMEDSVSCVPLSENIEYTCERFWGELYGDGDWDLGTEYFSFRNCFKLDRDARELILRSCFKPVALPGGEIPKYFTYRAYGDSLTVTLPRSSLSQSFLRFKACLVVDPLSEGKGFYRYLEVNFGFNGKQYQKSFLEDEELEFCKTDHLFFCSFKFESEMTFNDVEFKFCCSNRIKECGVRLMYVSQETEYNQQTTRSKKRMRMTSGTSEEYINLAGDQIVADTGLAALNMELSLGEGEASSSTSLEGEALSVDYMITKEQDEDIPFLDPVSDGTWRSFYSAE |
| 8.99 | UGT74F2, UDP-glucosyltransferase 74F2 (protein, UniProt O22822 1-449, looked up) UDP-glycosyltransferase 74F2: MEHKRGHVLAVPYPTQGHITPFRQFCKRLHFKGLKTTLALTTFVFNSINPDLSGPISIATISDGYDHGGFETADSIDDYLKDFKTSGSKTIADIIQKHQTSDNPITCIVYDAFLPWALDVAREFGLVATPFFTQPCAVNYVYYLSYINNGSLQLPIEELPFLELQDLPSFFSVSGSYPAYFEMVLQQFINFEKADFVLVNSFQELELHENELWSKACPVLTIGPTIPSIYLDQRIKSDTGYDLNLFESKDDSFCINWLDTRPQGSVVYVAFGSMAQLTNVQMEELASAVSNFSFLWVVRSSEEEKLPSGFLETVNKEKSLVLKWSPQLQVLSNKAIGCFLTHCGWNSTMEALTFGVPMVAMPQWTDQPMNAKYIQDVWKAGVRVKTEKESGIAKREEIEFSIKEVMEGERSKEMKKNVKKWRDLAVKSLNEGGSTDTNIDTFVSRVQSK |
| 102 | TCH4, XTH22, Xyloglucan endotransglucosylase/hydrolase family protein (protein, UniProt Q38857 22-284, looked up) Xyloglucan endotransglucosylase/hydrolase protein 22: NFQRDVEITWGDGRGQIKNNGELLTLSLDKSSGSGFQSKNEYLFGKVSMQMKLVPGNSAGTVTTLYLKSPGTTWDEIDFEFLGNSSGEPYTLHTNVYTQGKGDKEQQFKLWFDPTANFHTYTILWNPQRIIFTVDGTPIREFKNMESLGTLFPKNKPMRMYSSLWNADDWATRGGLVKTDWSKAPFTASYRGFQQEACVWSNGKSSCPNASKQGTTTGSWLSQELDSTAQQRMRWVQRNYMIYNYCTDAKRFPQGLPKECLAA |
| 5240 | NSP5, nitrile specifier protein 5 (protein, UniProt Q93XW5 1-326, looked up) Thiohydroximate-O-sulfate sulfur/sulfate-lyase (nitrile-forming) NSP5: MCPVENKWLKVGQKGAGPGARSSHAMTVVGNKVYCFGGELKPTIHIDNDLYVFDLETQEWSIAPATGEAPFPCFGVSMVTIGSTIYVYGGRDDKRRYNGLHSYDTETNEWKLLAPVEEGLPGRSYHSMAGDDRKVYVFGGVTAKGRVNTLHAYDVVDQKWVEYPAAGEACKGRGAPGLVVVEGRIWVLFGFDGNELGDIHCFDLASEQWKAVETTGDVPAARSVFPAVSYGKYIVIYGGEEEPHELMHMGAGKMSGEVYQLDTETLVWERIVCGNEEEKPSQRGWCAFTKAVKDGEEGLLVHGGNSPTNERLDDLVFWGFSHLNVN |
